Values of other authors, collected in publication PMC5530503.
pKd: −log10 of the molar value.

Target: VEGFR2 (Homo sapiens) (UniProt P35968)
UniProt P35968, sequence (P35968 20-1356): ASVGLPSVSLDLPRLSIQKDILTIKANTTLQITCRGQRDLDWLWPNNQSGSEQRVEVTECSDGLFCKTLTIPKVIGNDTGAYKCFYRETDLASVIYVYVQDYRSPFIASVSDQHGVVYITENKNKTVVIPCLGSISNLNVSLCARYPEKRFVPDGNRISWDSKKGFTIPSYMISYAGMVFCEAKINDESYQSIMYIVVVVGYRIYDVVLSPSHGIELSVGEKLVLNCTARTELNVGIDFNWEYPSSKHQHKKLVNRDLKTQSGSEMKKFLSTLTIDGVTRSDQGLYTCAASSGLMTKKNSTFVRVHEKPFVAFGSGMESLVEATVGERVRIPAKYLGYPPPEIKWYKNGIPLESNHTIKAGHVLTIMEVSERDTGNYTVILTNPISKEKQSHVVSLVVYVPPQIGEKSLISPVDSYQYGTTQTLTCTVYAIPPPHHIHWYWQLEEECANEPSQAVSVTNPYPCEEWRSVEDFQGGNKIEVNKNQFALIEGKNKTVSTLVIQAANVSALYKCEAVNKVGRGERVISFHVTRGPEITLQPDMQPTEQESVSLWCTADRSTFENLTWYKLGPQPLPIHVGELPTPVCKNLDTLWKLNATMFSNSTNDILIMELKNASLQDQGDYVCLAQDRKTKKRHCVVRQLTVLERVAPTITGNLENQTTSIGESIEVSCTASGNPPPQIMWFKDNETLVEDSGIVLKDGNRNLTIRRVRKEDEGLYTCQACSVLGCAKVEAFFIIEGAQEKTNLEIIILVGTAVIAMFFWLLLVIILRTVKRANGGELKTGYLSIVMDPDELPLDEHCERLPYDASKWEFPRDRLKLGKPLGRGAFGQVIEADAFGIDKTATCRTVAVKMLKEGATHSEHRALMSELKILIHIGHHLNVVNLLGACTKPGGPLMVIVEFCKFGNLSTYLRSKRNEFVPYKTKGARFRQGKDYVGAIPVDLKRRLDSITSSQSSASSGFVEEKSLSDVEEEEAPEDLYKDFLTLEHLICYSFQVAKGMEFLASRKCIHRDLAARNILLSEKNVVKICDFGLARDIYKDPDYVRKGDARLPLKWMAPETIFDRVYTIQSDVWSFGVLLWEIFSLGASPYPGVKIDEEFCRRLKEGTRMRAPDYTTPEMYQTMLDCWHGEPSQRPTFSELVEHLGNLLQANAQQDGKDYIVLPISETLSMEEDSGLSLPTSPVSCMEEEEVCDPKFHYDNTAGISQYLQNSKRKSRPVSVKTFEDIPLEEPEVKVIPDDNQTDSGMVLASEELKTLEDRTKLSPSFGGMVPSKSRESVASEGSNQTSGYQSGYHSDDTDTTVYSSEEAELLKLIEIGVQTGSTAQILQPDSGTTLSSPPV

With VEGF (from UniProt P15692) as the substance, how does the pKd read?
Its pKd is 10.43.
